Assay results published in US20180319880A1 (Eli Lilly, published 2018).

Assays:
[1] = molecular target: T1, human CGRP (human/cynomolgus monkey CGRP) (human, not fully specified); experiment: SPR (BIAcore 3000), antibody captured on Protein A, after CGRP injections, 25 C
T1 construct: also called human Calcitonin Gene Related Peptide; human CGRP peptide (Bachem H-1470)
T1 peptide: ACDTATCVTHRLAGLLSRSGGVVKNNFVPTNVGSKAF

rabbit IL-23 = molecular target: T2, rabbit IL-23 (rabbit, UniProt G1SSM0 20-191); experiment: SPR (Biacore T200), antibody captured on Protein A, IL-23 as analyte, 37 C, n=1
T2 construct: not shown: The rabbit p40 subunit (IL-12B) of the heterodimer; Any tag or linker of the reagent is also unstated
T2 sequence (p19): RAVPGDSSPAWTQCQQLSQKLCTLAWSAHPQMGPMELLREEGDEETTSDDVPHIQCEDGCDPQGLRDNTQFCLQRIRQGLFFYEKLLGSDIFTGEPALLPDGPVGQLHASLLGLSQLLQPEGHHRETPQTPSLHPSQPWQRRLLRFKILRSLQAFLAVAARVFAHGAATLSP
Protocol: Affinity and kinetics of Bispecific Antibody 1 to human, cynomolgus monkey, mouse, rat, and rabbit IL-23 are measured using a Biacore T200 instrument (BIAcore® AB, Upsala, Sweden). Briefly, a protein-A coupled CM5 chip is generated using standard amine-coupling protocols. Bispecific Antibody 1 is diluted to 1 μg/mL in running buffer, and approximately 100 RU is captured to the chip surface. A concentration series of each ligand is injected over all flow cells at 100 μL/minute for 180 seconds followed by a 900 second dissociation phase followed by chip regeneration. Data is analyzed in Biacore T200 Evaluation Software Version 1.0 by flow-cell 1 reference subtraction along with 0 nM blank subtraction. Human, cynomolgus monkey, and rabbit IL-23 data are fit globally using a “1:1 (Langmuir) Binding” binding model to determine the on-rate (kₒₙ) and off-rate (koff) for each ligand. The affinity (KD) is calculated from the binding kinetics according to the relationship KD=koff/kₒₙ. Mouse IL-23 binding data is fit using a “Steady State Affinity” binding model to determine affinity (KD). Stoichiometry of binding is calculated according to the relationship: Stoichiometry of binding is calculated according to the relationship: Stoichiometry=[RUₘₐₓ/RU_{Bispecific Antibody 1}]/[MWantigen/MW_{Bispecific Antibody 1}] where MWantigen is the molecular weight of human IL-23 and MW_{Bispecific Antibody 1} is 150 kDa.

[2] = molecular target: T1, human CGRP (human/cynomolgus monkey …); experiment: SPR (Biacore T100 or T200), antibody captured on Protein A, CGRP as analyte, 37 C, n=3
Protocol: (§1) Affinity and kinetics of Bispecific Antibody 1 to human/cynomolgus monkey, mouse/rat, and rabbit CGRP are measured using a Biacore T100 or T200 instrument (BIAcore® AB, Upsala, Sweden). Briefly, a protein-A coupled CM5 chip is generated using standard amine-coupling protocols. […] A concentration series of each ligand is injected over all flow cells at 70-100 μL/minute for 180 seconds followed by a 1500-1800 second dissociation phase followed by chip regeneration.
(§2) Data is analyzed by flow-cell 1 reference subtraction along with 0 nM blank subtraction. The on-rate (kₒₙ) and off-rate (koff) for each ligand are fit globally using a “1:1 (Langmuir) Binding” binding model. The affinity (KD) is calculated from the binding kinetics according to the relationship KD=koff/kₒₙ. Stoichiometry of binding is calculated according to the relationship: Stoichiometry=[RUₘₐₓ/RU_{Bispecific Antibody 1}]/[MWantigen/MW_{Bispecific Antibody 1}] where MWantigen is the molecular weight of human CGRP and MW_{Bispecific Antibody 1} is 150 kDa.

human IL-27 = molecular target: T3, human IL-27 (human, UniProt Q8NEV9 29-243; Q14213 21-229); experiment: SPR (BIAcore 2000), antibody captured on Protein A
T3 sequence (looked up) 1: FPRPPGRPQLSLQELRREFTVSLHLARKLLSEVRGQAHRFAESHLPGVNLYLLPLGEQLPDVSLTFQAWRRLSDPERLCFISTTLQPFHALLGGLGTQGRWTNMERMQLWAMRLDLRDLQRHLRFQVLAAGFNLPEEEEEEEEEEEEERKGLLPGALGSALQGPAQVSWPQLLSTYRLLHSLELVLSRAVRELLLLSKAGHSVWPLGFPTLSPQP
T3 sequence (looked up) 2: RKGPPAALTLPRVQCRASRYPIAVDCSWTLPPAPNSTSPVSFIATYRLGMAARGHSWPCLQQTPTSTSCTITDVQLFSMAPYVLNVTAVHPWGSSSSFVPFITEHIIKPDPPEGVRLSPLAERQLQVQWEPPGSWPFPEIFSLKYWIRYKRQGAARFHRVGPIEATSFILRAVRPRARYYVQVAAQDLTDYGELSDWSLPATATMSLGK

human IL-12 = molecular target: T4, human IL-12 (human, UniProt P29459 23-219; P29460 23-328); experiment: SPR (BIAcore 2000), antibody captured on Protein A
T4 sequence (looked up) 1: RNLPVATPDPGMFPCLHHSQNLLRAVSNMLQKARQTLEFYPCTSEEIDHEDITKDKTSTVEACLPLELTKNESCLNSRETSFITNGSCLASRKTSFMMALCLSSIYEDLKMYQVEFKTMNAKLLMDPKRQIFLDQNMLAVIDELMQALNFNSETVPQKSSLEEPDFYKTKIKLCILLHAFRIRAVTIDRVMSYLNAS
T4 sequence (looked up) 2: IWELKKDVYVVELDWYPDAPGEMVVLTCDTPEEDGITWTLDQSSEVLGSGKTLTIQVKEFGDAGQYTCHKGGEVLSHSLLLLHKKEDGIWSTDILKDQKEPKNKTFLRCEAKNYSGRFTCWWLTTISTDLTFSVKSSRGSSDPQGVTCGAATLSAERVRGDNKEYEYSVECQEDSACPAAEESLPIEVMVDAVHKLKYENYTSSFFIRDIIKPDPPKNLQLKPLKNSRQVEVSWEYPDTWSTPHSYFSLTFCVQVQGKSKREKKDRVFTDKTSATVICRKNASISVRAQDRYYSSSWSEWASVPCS

human IL-35 = molecular target: T5, human IL-35 (human, UniProt P29459 23-219; Q14213 21-229); experiment: SPR (BIAcore 2000), antibody captured on Protein A
T5 sequence (looked up) 1: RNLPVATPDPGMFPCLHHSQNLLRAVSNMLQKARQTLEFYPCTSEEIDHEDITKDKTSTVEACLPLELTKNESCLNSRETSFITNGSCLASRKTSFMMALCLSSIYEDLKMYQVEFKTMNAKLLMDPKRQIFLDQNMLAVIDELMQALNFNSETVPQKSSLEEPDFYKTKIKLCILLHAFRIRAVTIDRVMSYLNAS
T5 sequence (looked up) 2: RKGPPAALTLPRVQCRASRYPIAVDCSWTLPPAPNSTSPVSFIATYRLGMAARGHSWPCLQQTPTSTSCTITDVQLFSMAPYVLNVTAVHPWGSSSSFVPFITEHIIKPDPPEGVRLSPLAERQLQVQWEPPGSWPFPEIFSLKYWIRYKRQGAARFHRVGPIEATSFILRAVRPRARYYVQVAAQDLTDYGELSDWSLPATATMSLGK

rabbit CGRP = rabbit CGRP (rabbit); experiment: SPR (Biacore T100 or T200), antibody captured on Protein A, CGRP as analyte, 37 C, n=1
Protocol: as §1, §2

mouse/rat CGRP = molecular target: T6, mouse/rat CGRP (mouse/rat, UniProt P01256 83-119 (rat entry)); experiment: as above
T6 construct: also used as the target of the rat dermal blood flow assay (endogenous rat CGRP)
T6 peptide (looked up): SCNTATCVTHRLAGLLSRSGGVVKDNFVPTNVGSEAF
Protocol: as §1, §2

mouse IL-23 = molecular target: T7, mouse IL-23 (mouse, UniProt Q9EQ14 22-196; P43432 23-335); experiment: SPR (Biacore T200), antibody captured on Protein A, steady-state affinity model, 37 C, n=2
T7 sequence (looked up) 1: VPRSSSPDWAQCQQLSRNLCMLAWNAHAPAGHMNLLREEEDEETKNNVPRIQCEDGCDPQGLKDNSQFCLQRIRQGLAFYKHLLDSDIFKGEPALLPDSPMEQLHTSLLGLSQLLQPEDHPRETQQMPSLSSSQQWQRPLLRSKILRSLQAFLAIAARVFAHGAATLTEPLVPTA
T7 sequence (looked up) 2: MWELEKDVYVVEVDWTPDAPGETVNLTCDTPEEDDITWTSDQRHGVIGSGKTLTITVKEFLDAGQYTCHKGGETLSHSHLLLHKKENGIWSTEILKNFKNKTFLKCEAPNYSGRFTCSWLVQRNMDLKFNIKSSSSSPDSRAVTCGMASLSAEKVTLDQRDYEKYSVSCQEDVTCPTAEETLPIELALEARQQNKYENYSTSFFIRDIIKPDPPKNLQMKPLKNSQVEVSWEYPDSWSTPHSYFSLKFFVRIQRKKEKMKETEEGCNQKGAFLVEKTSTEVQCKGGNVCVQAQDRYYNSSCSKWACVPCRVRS
Protocol: Affinity and kinetics of Bispecific Antibody 1 to human, cynomolgus monkey, mouse, rat, and rabbit IL-23 are measured using a Biacore T200 instrument (BIAcore® AB, Upsala, Sweden). Briefly, a protein-A coupled CM5 chip is generated using standard amine-coupling protocols. Bispecific Antibody 1 is diluted to 1 μg/mL in running buffer, and approximately 100 RU is captured to the chip surface. A concentration series of each ligand is injected over all flow cells at 100 μL/minute for 180 seconds followed by a 900 second dissociation phase followed by chip regeneration. Data is analyzed in Biacore T200 Evaluation Software Version 1.0 by flow-cell 1 reference subtraction along with 0 nM blank subtraction. Human, cynomolgus monkey, and rabbit IL-23 data are fit globally using a “1:1 (Langmuir) Binding” binding model to determine the on-rate (kₒₙ) and off-rate (koff) for each ligand. The affinity (KD) is calculated from the binding kinetics according to the relationship KD=koff/kₒₙ. […] Stoichiometry of binding is calculated according to the relationship: Stoichiometry of binding is calculated according to the relationship: Stoichiometry=[RUₘₐₓ/RU_{Bispecific Antibody 1}]/[MWantigen/MW_{Bispecific Antibody 1}] where MWantigen is the molecular weight of human IL-23 and MW_{Bispecific Antibody 1} is 150 kDa. […]

B1: Bispecific Antibody 1 (bispecific antibody, human IgG1, kappa, lambda, L234A L235A)
heavy 1: QVQLVQSGAEVKKPGSSVKVSCKASGYTFGNYWMQWVRYAPGQGLEWMGAIYEGTGKTVYIQKFADRVTITADKSTSTAYMELSSLRSEDTAVYYCARLSDYVSGFGYWGRGTTVTVSSASTKGPSVFPLAPCSKSTSGGTAALGCLVKDYFPEPVTVSWNSGALTSGVHTFPAVLQSSGLYSLSSVVTVPSSSLGTQTYICNVNHKPSNTKVDKKVEPDSGDKTHTCPPCPAPEAAGGPSVFLFPPKPKDTLMISRTPEVTCVVVDVSHEDPEVKFNWYVDGVEVHNAKTKPREEQYNSTYRVVSVLTVLHQDWLNGKEYKCKVSNKALPAPIEKTISKAKGQPREPQVYTLPPSRGDMTKNQVQLTCLVKGFYPSDIAVEWESNGQPENNYKTTPPVLDSDGSFFLASKLTVDKSRWQQGNVFSCSVMHEALHNHYTQKSLSLSPG
light 1: DIQMTQSPSSLSASVGDRVTITCRASKDISKYLNWYQRKPGDAPKLLIYYTSGYHSGVPSRFSGSGSGTDFTLTISSLQPEDFATYYCQQGDALPPTFGGGTKVEIKRTVAAPSVFIFPPSKEQLKSGTASVVCLLNNFYPREAKVQWKVDNALQSGNSQESVTEQDSKDSTYSLSSTLTLSKADYEKHKVYACEVTHQGLSSPVTKSFNRGEC
heavy 2: QVQLVQSGAEVKKPGSSVKVSCKASGYPFTRYVMHWVRKAPGQGLEWMGYINPYNDGVNYNEEFKGRVTITADESTSTAYMELSSLRSEDTAVYYCARNWDTGLWGQGTTVTVSSASTKGPSVFPLAPSSKSTSGGTAALGCLVKDYFPEPVTVSWNSGALTSGVATGPAVLQSSGLYSLSSVVTVPSSSLGTQTYICNVNHKPSNTKVDKKVEPKSCDKTHTCPPCPAPEAAGGPSVFLFPPKPKDTLMISRTPEVTCVVVDVSHEDPEVKFNWYVDGVEVHNAKTKPREEQYNSTYRVVSVLTVLHQDWLNGKEYKCKVSNKALPAPIEKTISKAKGQPREPQVSTLPPSREEMTKNQVSLMCLVYGFYPSDIAVEWESNGQPENNYKTTPPVLDSDGSFFLYSVLTVDKSRWQQGNVFSCSVMHEALHNHYTQKSLSLSPG
light 2: RIQMTQSPSSLSASVGDRVTITCKASDHIGKFLTWYQDKPGKAPKLLIYGATSKLTGVPSRFSGSGSGTDFTLTISSLQPEDFATYYCQQYWSTPFTFGGGTKVEIKGQPKAAPSVTLFPPSSEELQANKATLVCYISDFYPGAVTVAWKADSSPVKAGVETTTPSKQSNNKYAAWSYLSLTPEQWKSHRSYSCQVTHEGSTVEKTVAPTEC
notes: Heterodimeric IgG1 with one arm for CGRP and one arm for the p19 subunit of IL-23; also called exemplified bispecific antibody; anti-CGRP/anti-IL-23 IgG bispecific antibody
**Q.** Which “stoichiometry of human CGRP-to-Bispecific Antibody 1” value [1] does the source give for B1 here?
**A.** 0.8

**Q.** And the Kd (rabbit IL-23)?
**A.** 1020 nM

**Q.** What about the Stoichiometry (rabbit IL-23) of the same binder?
**A.** 1

**Q.** What about the koff (rabbit IL-23) of the same binder?
**A.** 0.018 s⁻¹

**Q.** And the kon (rabbit IL-23)?
**A.** 17000 M⁻¹ s⁻¹

**Q.** What about the Kd [2] of the same binder?
**A.** 0.0071 nM

**Q.** And the Stoichiometry [2]?
**A.** 1

**Q.** What about the koff [2] of the same binder?
**A.** 7.2e-05 s⁻¹

**Q.** And the kon [2]?
**A.** 1.5e+07 M⁻¹ s⁻¹

**Q.** Does B1 bind (human IL-27)?
**A.** no binding (tested: 400 nM)

**Q.** Does B1 bind (human IL-12)?
**A.** no binding (tested: 400 nM)

**Q.** Does B1 bind (human IL-35)?
**A.** no binding (tested: 400 nM)

**Q.** And the Kd (rabbit CGRP)?
**A.** 0.021 nM

**Q.** And the Stoichiometry (rabbit CGRP)?
**A.** 0.9

**Q.** What about the koff (rabbit CGRP) of the same binder?
**A.** 0.00047 s⁻¹

**Q.** What about the kon (rabbit CGRP) of the same binder?
**A.** 2.3e+07 M⁻¹ s⁻¹

**Q.** What about the Kd (mouse/rat CGRP) of the same binder?
**A.** 0.169 nM

**Q.** What about the Stoichiometry (mouse/rat CGRP) of the same binder?
**A.** 0.8

**Q.** And the koff (mouse/rat CGRP)?
**A.** 0.00097 s⁻¹

**Q.** And the kon (mouse/rat CGRP)?
**A.** 5.7e+06 M⁻¹ s⁻¹

**Q.** What about the Kd (mouse IL-23) of the same binder?
**A.** > 100 nM
